assay: soluble on expression in E. coli; label from the status in PepcDB or PDB records

Q: For “RAQRKMSAQSLPAATPPTQKPPRIIRPRPPSRSRAAQSPGPPHNGSSPQELPRNSNDAPTPMCTPIFWEPPAASLKPPALLPPSASRASLDSQTSPDSPSSTPTPSPVSRRSASPEPAPRSPVPPPKPSGSPCTPLLPMAGVLAQNGSASAPGTVRRLAGRFEGGAEGRAQDADAPEPGLQARADVNGEREAPLTGSGSQENGAPDAGLACPPCCPCVCHTTRPGLELRWVPVGGYEEVPRVPRRASPLRTSRSRPHPPSIGHPAVVLTSYRSTAERKLLPLLKPPKPTRVRQDATIFGDPPQPDLDLLSEDGIQTGDSPDEAPQNTPPATVEGREEEGLEVLKEQNWELPLQDEPLYQTYRAAVLSEELWGVGEDGSPSPANAGDAPTFPRPPGPRNTLWQELPAVQASGLLDTLSPQERRMQESLFEVVTSEASYLRSLRLLTDTFVLSQALRDTLTPRDHHTLFSNVQRVQGVSERFLATLLSRVRSSPHISDLCDVVHAHAVGPFSVYVDYVRNQQYQEETYSRLMDTNVRFSAELRRLQSLPKCERLPLPSFLLLPFQRITRLRMLLQNILRQTEEGSSRQENAQKALGAVSKIIERCSAEVGRMKQTEELIRLTQRLRFHKVKALPLVSWSRRLEFQGELTELGCRRGGVLFASRPRFTPLCLLLFSDLLLITQPKSGQRLQVLDYAHRSLVQAQQVPDPSGPPTFRLSLLSNHQGRPTHRLLQASSLSDMQRWLGAFPTPGPLPCSPDTIYEDCDCSQELCSESSAPAKTEGRSLESRAAPKHLHKTPEGWLKGLPGAFPAQLVCEVTGEHERRRHLRQNQRLLEAVGPSSGTPNAPPP”, which “soluble on expression in E. coli” value is on record?
A: soluble

Q: Which “soluble on expression in E. coli” value does the source give for “MAHHHHHHMSKSDLFNDAQVPMRATVLRFGDDVEGASYPEAALTIDDAAVPAEAKVEVYHDGDNSGSAHESVPHHAQDLRHDFTSGILNCHESCAVCLDACLCMYCTASAHHNFLMNDTEGLYLPVCWGLFCVDVGLSAVSSYLPSSLHFHTYFMRSAIRRRYNLHSAGAPVNSNTHGSSSSGCDCTTESMLDLLTVCFCLPCAIAQHQREIMHQGDWCGGVFSNRYSLQTPATVHTI” here?
A: not soluble

Q: For “MGSHHHHHHSSGLVPRGSHMTIGIDKISFFVPPYYIDMTALAEARNVDPGKFHIGIGQDQMAVNPISQDIVTFAANAAEAILTKEDKEAIDMVIVGTESSIDESKAAAVVLHRLMGIQPFARSFEIKEACYGATAGLQLAKNHVALHPDKKVLVVAADIAKYGLNSGGEPTQGAGAVAMLVASEPRILALKEDNVMLTQDIYDFWRPTGHPYPMVDGPLSNETYIQSFAQVWDEHKKRTGLDFADYDALAFHIPYTKMGKKALLAKISDQTEAEQERILARYEESIIYSRRVGNLYTGSLYLGLISLLENATTLTAGNQIGLFSYGSGAVAEFFTGELVAGYQNHLQKETHLALLDNRTELSIAEYEAMFAETLDTDIDQTLEDELKYSISAINNTVRSYRN”, which “soluble on expression in E. coli” value is on record?
A: soluble

Q: Which “soluble on expression in E. coli” value does the source give for “MSLSRSEEMHRLTENVYKTIMEQFNPSLRNFIAMGKNYEKALAGVTYAAKGYFDALVKMGELASESQGSKELGDVLFQMAEVHRQIQNQLEEMLKSFHNELLTQLEQKVELDSRYLSAALKKYQTEQRSKGDALDKCQAELKKLRKKSQGSKNPQKYSDKELQYIDAISNKQGELENYVSDGYKTALTEERRRFCFLVEKQCAVAKNSAAYHSKGKELLAQKLPLWQQACADPSKIPERAVQLMQQVASN” here?
A: soluble

Q: Which “soluble on expression in E. coli” value does the source give for “MNTSSSADPKPDASLSSSNSKIKKEEDLEAMKEAIAQLLQGVEELTQDKLNDAKSRKKLEESMEELKSQNLDLKAQLDFQMAHFQSLFEAHEKEIADLKARQYQNNSIAAQTPPPDVRQELRSFPMVKHSRENPELRNVPVLIFSRCMLCETDEHTIHSCPIYNTNSKRYEGFKDKGLCRSCALPANSDGSATCGRNCMFSRRRCTNCWDKGGDKSYVYHLEFTCRWDERRSQRTSPFSTDHSDRSSKHPRISFDECENHHY” here?
A: not soluble

Q: For “MTDEIISYQKAKLAKNLAISTASKWLFVHSSTGGSATNLSIAQYATLINGIQSAIKCQVILTAGKGERERAVELAEKLTDQNVVIYDKNDGLADFTRSLACADLFIAGSTGPLHIAGGLNIPTVGFYPSRLSATPRRWRPINQVDKHLAFCPPSGKQCEMDLTLISIEQALTSVIPFIKKMWQLSLEHHHHHH”, which “soluble on expression in E. coli” value is on record?
A: soluble

Q: Which “soluble on expression in E. coli” value does the source give for “MHHHHHHMKHNQLPLVIEFTEQTAPKIFGGEIKTHILLFLPKSVSDYDGKLSNFKTAAESFKGKILFAFIDSDHTDNQRILEFFGLKKEECPAVRLITLEEEMTKYKPESEELTAERITEFCHRFLEGKIKPHLMSQELPEDWDKQP” here?
A: soluble

Q: With “MFRNVAELVELAESQAIPISEVMIRQEIEVTERSREAIIEQMENHLDVMEKAVRRGITEQVRSVSGLTGGDAVLLQDYLKKGNYLSSETVLDAVSKAVATNEVNAAMGTICATPTAGASGVVPGVLFGMEKRLSPTKEQKVRFLFTSGAFGFVVANNASISGAAGGCQAEVGSATGMAAAALVELAGGTPSQSAEAMAIALKNMLGLVCDPVAGLVEVPCVKRNAIGASIAITAADMALAGIQSRIPTDEVIDAMYKIGQAMPVAYKETAQGGLAATPKGRELEAKIFGVALDKK” as the sequence, how does the “soluble on expression in E. coli” value read?
A: not soluble

Q: For “MAVVGYISYDNRDTFMNAKDVLSTEIEAVNGKADTKESKECEDTQASDEVALETDSTEEILNAGETVLTSASTESEECVAQVKLGREQVRSKNKEALQKIIDDAGVSEAEKKSAVDAMVKLTENAQMEEDAQMMLEAKGFKNAVVSLSDECCDVIVGKDDVTDEKRAQIEDIIKRKTNIGASNIVISTMD”, which “soluble on expression in E. coli” value is on record?
A: not soluble

Q: Which “soluble on expression in E. coli” value does the source give for “MSLSHSEKDVHEMGRFLLSTIKGSILELAFSHGEVEGLSFEKKVTILEIEDLDLPTDRHDELDENQRLSVTLMFALGTFCSKFGSRNRKEETVTFFDEAWIFQSSPEGQKILKSMKRIGRSFNNFMVLITQSVNDVLDNGDGTGFGTVVCFDEVDNREGILRYLKLPVNEINLKWVSNMIQGQCLMKDMFNQVNRIVIDVIFEEWLELFETVDEGHHHHHH” here?
A: not soluble

Q: Which “soluble on expression in E. coli” value does the source give for “TTNKPIVLSTWNFGLHANVEAWKVLSKGGKALDAVEKGVRLVEDDPTERSVGYGGRPDRDGRVTLDACIMDENYNIGSVACMEHIKNPISVARAVMEKTPHVMLVGDGALEFALSQGFKKENLLTAESEKEWKEWLKTSQYKPIVNIENHDCIGMIALDAQGNLSGACTTSGMAYKMHGRVGDSPIIGAGLFVDNEIGAATATGHGEEVIRTVGTHLVVELMNQGRTPQQACKEAVERIVKIVNRRGKNLKDIQVGFIALNKKGEYGAYCIQDGFNFAVHDQKGNRLETPGFALK” here?
A: soluble

Q: For “MRHTLPIAPQFYVTAPQSCPYLEGRLERKLFTALQGEHAQKLNDTLSKQGFRRSQNVLYRPSCAECSACLSARIRVADFEPTRTQRRVMKRNADLRRNATSPWATEDQYALFRRYLDDRHADGGMADMDIFEFAAMIEETPIRSRVIEYSRPGDTPSNRPLSAVCLTDIFDDGLSMVYSFYDPDLAGRSLGAYVILDHIEIAREAGLPYVYLGYWVPGSRKMGYKATYSALEIYKGGRWQAIGQPSDHRAELHPLSVDPIAEQVARISLPEARSGDRSRDLEHHHHHH”, which “soluble on expression in E. coli” value is on record?
A: not soluble

Q: With “MGSDKIHHHHHHMEYQTRQWLEEALFDLLATKKSLHNISIAELSEHAQIARRTFYRYYHSKEQVLTNYLDRLIQDYIIELQTEKLTNFEDLVNLFFQYWSQYTESLKILQEANLLVLILQRYYDKLPAAYTTVMAPWHITNSDQRQISYDSRFIIGGLYSIFDEWLKTDHQTMPVNELVTTALNTIKRMKDS” as the sequence, how does the “soluble on expression in E. coli” value read?
A: not soluble

Q: Which “soluble on expression in E. coli” value does the source give for “MGSDKIHHHHHHMGDRLYFERFIWFDSQIRNGCYPNASALARKFEFDIKTAQRSIEYFRDRLGAPLDYDASRRGYRYYDPNYQLPVTHLSESELVALLASRKLLTDAAAGPLGDELEKVSNRLGALLSNGLKGKINPERAFSFRWNGMAASDPVIFEQAVSALLSCRLLTFCYYSPLAGACTARTVEPHHMINYMGAWHLIAWCRLRNDWRDFHLARVSLAHLEEEIFSPRDETTWRPCLDETFGIFQNRERFDVTIRFSADRARWVREELWHQDQSTRDLDTGEVELTIPVSHEAEILMEVLKHGSHAEVMEPIWLRDRIREEIGKMQKKY” here?
A: not soluble

Q: With “MGSDKIHHHHHHMKFFNREKEIHKILSIIEGEPNLIYFIYGSINSGKTALINEIINNRLDKNKYIVFYFDLREIFISKYDDFIEVLFEEYEGDKSPIEVIKAIINDLPSLYGIPIPKNTLNEIFKKKTTKNVFRYITNVLMDIKREGKQPIIIIDELQKIGDMKINGFLIYELFNYFVSLTKHKHLCHVFCLSSDSLFIERVYNEAMLEDRVDYILVDDHRGGYAPSIGILPQIESGVAFGNPALEYSNRGFASMRGEYILVDDFDKETALKFMDFLAKENNMSLTNEDKELIYNYVGGKPVLIIKVIDKLRYENLNDILDFMLKDATQKLKYFLEDVKEEDEELYKKVVDALKLFKEDYEIEDIKIPKKIREFLIKRNILFLNPIEGILKPQSFLVWNAIKKVL” as the sequence, how does the “soluble on expression in E. coli” value read?
A: not soluble

Q: Which “soluble on expression in E. coli” value does the source give for “MKKILIVDDEKPISDIIKFNMTKEGYEVVTAFNGREALEQFEAEQPDIIILDLMLPEIDGLEVAKTIRKTSSVPILMLSAKDSEFDKVIGLELGADDYVTKPFSNRELQARVKALLRRSQ” here?
A: soluble

Q: With “MARDEVRRILPADIKREVLIKDENAETNPDWGFPPEKRPIEMHIQFGVINLDKPPGPTSHEVVAWIKKILNLEKAGHGGTLDPKVSGVLPVALEKATRVVQALLPAGKEYVALMHLHGDVPEDKIIQVMKEFEGEIIQRPPLRSAVKRRLRTRKVYYIEVLEIEGRDVLFRVGVEAGTYIRSLIHHIGLALGVGAHMSELRRTRSGPFKEDETLITLHDLVDYYYFWKEDGIEEYFRKAIQPMEKAVEHLPKVWIKDSAVAAVTHGADLAVPGIAKLHAGIKRGDLVAIMTLKDELVALGKAMMTSQEMLEKTKGIAVDVEKVFMPRDWYPKLWEKRDRSHHHHHH” as the sequence, how does the “soluble on expression in E. coli” value read?
A: soluble

Q: For “MSLTKKELPLDGLIPYCEQCGDFRFPVFSVAVSMIVMNEGGDQVLLIKQYWKDSYILVAGYVNKGENAEDSCRRELMEELHLTAKSLHFNRSQYFAPSNTLMLNYTVTVDQAEKVSPNEEIDAWNWLSIDEARRQIRPNSLARTFLLEYLNKCKLHREGHHHHHH”, which “soluble on expression in E. coli” value is on record?
A: soluble

Q: For “MLYNLAIVIYDLLVHFAAPFSRKPRKMMKGHWVVYELLRQQVEKGEQYIWFHAASLGEFEQGRPLIEMIREKYPDYKILLTFFSPSGYEVRKHYRGADIVCYLPFDKPRNVKKFLDIANPCMAFFIKYEFWKNYLDELHKRRIPVYSVSSIFRRDQIFFKWYGGTYRNVLKDFDHLFVQNEASKRYLSKIGICRVTVVGDTRFDRVLQIREEAKDLPLVKMFKGDNAFTFVAGSSWGPDEDLFLEYFNTHPEMKLIIAPHVIDENHLVEIISKLKRPYVRYTRADEKNVLKVDCLIIDCFGLLSSIYRYGEVAYIGGGFGVGIHNTLEAAVYGIPVIFGPKYQKFMEAIRLLEAKGAYSIKDYHELKTLLDRFQADDVFMRETGANAGYYVTSNAGATEKIMHMINFLEHHHHHH”, which “soluble on expression in E. coli” value is on record?
A: not soluble

Q: Which “soluble on expression in E. coli” value does the source give for “MFLKVRAEKRLGNFRLNVDFEMGRDYCVLLGPTGAGKSVFLELIAGIVKPDRGEVRLNGADITPLPPERRGIGFVPQDYALFPHLSVYRNIAYGLRNVERVERDRRVREMAEKLGIAHLLDRKPARLSGGERQRVALARALVIQPRLLLLDEPLSAVDLKTKGVLMEELRFVQREFDVPILHVTHDLIEAAMLADEVAVMLNGRIVEKGKLKELFSAKNGEVAEFLSARNLLLKVSKILD” here?
A: soluble

Q: For “MTFGEKLLNAASTRGRLCVGIDPHESLLTSWGLPVNVDGLAEFSRACVEAFADTVALVKPQVAFYERFGSAGFAILEETIQTLRERGCLVVSDAKRGDIGSTMAGYASAWLDPASPLSSDAVTVSPYLGFHSLDPVFELAEQHGRGVFVLAATSNPEARELQDQQNADGVSISQQIVDQAAALNAPYMAQGKAGNIGVVIGATLSKPPRLSTLGGAILMPGVGAQGGTASDVDEIAGDMAHLAFPNVSRSILATGPDIAEMKNSVAKNAADFPGFPRS”, which “soluble on expression in E. coli” value is on record?
A: soluble
